Results from the supplement of paper PMC9170038.

What follows are sequences tested on K4 kissing-loop RNA reporter (assay: apparent KD of K4 kissing-loop reporter; higher = weaker reporter binding). Settings: Eterna round: R107; input ligand: arginine 13.2 mM.
Experimental: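 RNA-MaP round R107: designed RNA switches with theophylline, tryptophan, arginine or FMN aptamers are transcribed on-chip within common flanks. They are titrated with a labelled K4 kissing-loop RNA reporter in RNA-MaP buffer (100 mM Tris pH 7.5, 80 mM KCl, 4 mM MgCl2), without ligand or with the indicated ligand. Median apparent KD per design.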
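Further: bound reporter read as fluorescence of individual clusters on recovered sequencing chips by microscopy, with normalized cluster intensities fitted with a binding model.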

Row | Sequence | apparent KD of K4 kissing-loop reporter [nM]
1 | GUAUCGCUAGGAGGAUAUUUCAAUUUGACUCUUUGAGUUAAUACGGAGUGAUGUUCCGUUUUACGGAAAGAAGGCCUAGUGAUAC [FMN B 14] | 150
2 | AAUAUGAAGCAGUGAUGUUGCUUAUGAGAAGGAGCGCACGAAAGUGCAGGUAGGUCGCUCAGCCAAGUGGACGAAAACGUCCACA [whbob_SS_Arginine_A_sa107] | 99.9
3 | UGAUAGGACAGAAGGAGCGGAAGUGAUGUUUCCAAAAGGAUAAGGUGUCAAAAGACACCCUUCCAGGUAGGUCGCUGUCCUAUCU [ArgBX 13 #Palindromic #SwitchBubble #StaticStem] | 165
4 | GUAUGUGGAAACACGUACUUGUAUCCUAGGAAGGAUAUGCGGAAACGCAGAAGGUCCACCGGCGAGUUUAUCCAGUGAUGUUGGA [Ex FMN A 10] | 275
5 | CAGUUCCGUAGUGAUGUUACGAUCUCUGAUACCAGACAACUCUAAGUCCCUUGGCAGCAGUCAUUUUGCUUAAUAUUUACUCAAA [#08 K4 Theophylline A Exclusion] | 139
6 | CCUUUAGGCUCGGCCGCCACUCCAGUGAUGUUGGAGGUGCGUACAGAGCUAGAAAGCGUUAUCAGGAGGACCGGGAGUUUUAACG [Leorte] | 107
7 | GGCAUGGUGACGCGGCUGCCAUACGCUUGGGAGGAUAUGUUUCGUGACAGAAGGCCCAGUGAUGUUGGGUCUGUUCAAAAGGACU [Arisus] | 160
8 | AGAUUCGACACGGCCGCCACUUCCGGUGGCUGGUGUCAUGGUGCGCGUGAGUGAUGUUUAUGUGGGAGGACCGGGUGUUGAGUCU [whbob_Ex_Tryp_B_w42] | 393
9 | GGGAGAAGAGCGGCCGCCACUCAGAAAGAAGAAGAAUAUAGUGAUGUUAUAUAGGAAAGGAAGAAGAGGACCGGGCUUAAGAGGG [#18 K4 Tryptophan B Same State] | 132
10 | GGGUUGAGCGGAAGGAGCGGCUGAACCAGUGAUGUUGGUUAAUCCAAGUGAUGUUGGAAAAGCCAGGUAGGUCGCCGCUUUAUCC [Same State Arg B GF 3] | 533
11 | GGAUAGGACAGAGGAUAUGGUAGUGAUGUUACCAAACUGGUUACUCUUGUCAGAAAACUGGCAUCUCCAGAAGGCUGUCCUAUCG [KL-XFMN-B10] | 109
12 | AGGUACAAAAGUACCGCUAGAUCCACGGAAGGAGCGCGCGAAAGCGCAGGUAGGUCGCCGGGCAGUGAUGUUGCCGGAUCUAGCA [Omei KL Arginine A SS A v7] | 138
13 | CUGCCUCACUCGGCCGCCACUGUAUAAAUGUGACAGUGAUGUUGUCGUCGGAAAGGGCACUUAGGCAGGACCGGGAGUUUCAGGC [theeternabot_exclusion_KL_Trp_B_20] | 409
14 | AGACUACCACACUGUCAAUAGACAGUGAGCUAGGAUAUGCUGAUAAGCAGAAGGAGUGAUGUUCCUCGGUAGUCAAUAAAAUAAU [FmnAX 13 G29+C67] | 357
15 | ACGUCACGUAAACUCGUGGUUUCGAUCGAUACCAGUAGCGAGAGUUACCCUUGGCAGCGACAUGAGUGAUGUUCAUGUACGAAGA [KL-XTheoA1] | 89.1
16 | AGCGCCUAAGCCGAUACCAGAAACGCGGUGCGUCGCACGAUUAACUAGGAAAGUGAUGUUUUCCCUUGGCAGCGGGACCUGUGAG [theeternabot_exclusion_KL_Theo_B_11] | 116
17 | GGAUGCAUUUUGGAUACCAGUCUAGUGAUGUUAGACUGAUAAUAACGGGCAGCGUUGGCAGACCCUUGGCAGCCAAAAUACUUAA [theeternabot_exclusion_KL_Theo_B_33] | 64.6
18 | GCGCGGCACAGUGAUGUUGUGCCUCGGAGACGAGGACCGGUACGGCCGCCACUCGUCCGCGCAGCUGAGGCAAAAGCCUCGGCAA [Omei KL Tryp A SS B v4] | 393
19 | CCCGCGGCGGGAAACCGUCGCGGGAAGGAAGGAGCGGCGAAGAAGCCAGGUAGGUCGCCUAUUGACAGUGAUGUUGUUAUAUAGA [#11] | 263
20 | AGAGUUAUGCGAGGAUAUGCAGUUAGUACUCAAAGAGUACUAACGGCAGAGUGAUGUUCUGUGAAAGCAGAAGGUGCAUAACUCA [Omei KL FMN B SS B v8] | 837
21 | UAGUCCUAGUGAUCGUUAUCACGUGGUGGGCGAGGACCGGUACGGCCGCCACUCGACUAUGCAGUGAUGUUGCAAUCCGGACAAU [Exclusion - Tryptophan A (Freestyle 15)] | 436
22 | ACGCCGAGGACGGCCGCCACUAUGACGAAGUCCGUUCCUAUUACUGCGCGAGUGAUGUUCACGACUAGGACCGGGUCUAUGAGCU [theeternabot_exclusion_KL_Trp_B_28] | 708
23 | AUUAUCAAUUUAUUAUAUAACUUUUCAGAAGGAGCGUGGAAGUACACAGGUAGGUCGCUGAAUAUAGGACUAGUGAUGUUAGUUA [JR_Nu_SSArginiA_Sub024] | 221
24 | UGAUAGGACAGAAGGAGCGGUAGUGAUGUUGCCAAAAGGAUAAGGUGUCAAAAGACACCCUGCCAGGUAGGUCGCUGUCCUAUCU | 136

Same assay, conditions: Eterna round: R107; input ligand: none

Row | Sequence | apparent KD of K4 kissing-loop reporter [nM]
25 | AAAUAGAUCAGUCACCCAGUGAUGUUGGAAGGAGCGUGCGAAAGCACAGGUAGGUCGCCAGAAUAAAAGUGGCUGAUCAAAAUAA | 519
26 | CAUACGCAUGGAGGAUAUGAGAAUUCUCAUGUCAUUUAAUAUUCUCAGUGAUGUUGAGGAUGUGGCUCAGAAGGCCAUGUGUAUG [Ex FMN B 21] | 423
27 | GGCUAGACUUAGCUAGGUACAUAAUACGAUACCAGUCUAGAAAUAGACCCUUGGCAGCGUAGGCAGUGAUGUUGCCACUAGCUGA [Theo B SS t7] | 114
28 | CGGCCGUUAUGAGAUACCAGAGUGGCGACCAGUGAUGUUGGUCGACGCUUGCGGUCGUCUCUCCCUUGGCAGCUUAGUACGAAAG [Inisar] | 91.8
29 | ACGGCGCUGGAACCAGUAAUGGGAAGAAUGCGAGGACCGGUACGGCCGCCACUCGCUUCCAGUGAUGUUGGAAGUGAGCCAACAA [Geerzaedre] | 304
30 | UAAGAAUAGCAUGCAGUGAUGUUGCAUGUCCGAGGACCGGUACGGCCGCCACUCGAGUCCUCGAACAUGCACCGAGGAAUAACAA [#19 K4 Tryptophan A Same State] | 109
31 | CGGCGGAGUGAUGUUCCACCUACUGCGGAUACCAGCUUUGCCAGAGGCCCUUGGCAGCCGCACGGCUCAGUGAUGUUGGGUUGCG [Same State Theophylline A G12] | 227
32 | ACGUCCGGGUUAAUCGUGGGCGUGGUGGAUACCAGUUCUUCAAUGAACCCUUGGCAGCCACGUGAGUGAUGUUCACGUGCGAUGA [#15 K4 Theophylline A Exclusion] | 89.5
33 | GUAUCGCUAGGAGGAUAUUUCAAUUUGACUCUUUGAGUUAAUACGGAGUGAUGUUCCGUUUUACGGAAAGAAGGCCUAGUGAUAC [FMN B 14] | 192
34 | AAUAUGAAGCAGUGAUGUUGCUUAUGAGAAGGAGCGCACGAAAGUGCAGGUAGGUCGCUCAGCCAAGUGGACGAAAACGUCCACA [whbob_SS_Arginine_A_sa107] | 86.6
35 | UGAUAGGACAGAAGGAGCGGAAGUGAUGUUUCCAAAAGGAUAAGGUGUCAAAAGACACCCUUCCAGGUAGGUCGCUGUCCUAUCU [ArgBX 13 #Palindromic #SwitchBubble #StaticStem] | 134
36 | GUAUGUGGAAACACGUACUUGUAUCCUAGGAAGGAUAUGCGGAAACGCAGAAGGUCCACCGGCGAGUUUAUCCAGUGAUGUUGGA [Ex FMN A 10] | 274
37 | CAGUUCCGUAGUGAUGUUACGAUCUCUGAUACCAGACAACUCUAAGUCCCUUGGCAGCAGUCAUUUUGCUUAAUAUUUACUCAAA [#08 K4 Theophylline A Exclusion] | 136
38 | CCUUUAGGCUCGGCCGCCACUCCAGUGAUGUUGGAGGUGCGUACAGAGCUAGAAAGCGUUAUCAGGAGGACCGGGAGUUUUAACG [Leorte] | 103
39 | GGCAUGGUGACGCGGCUGCCAUACGCUUGGGAGGAUAUGUUUCGUGACAGAAGGCCCAGUGAUGUUGGGUCUGUUCAAAAGGACU [Arisus] | 170
40 | AGAUUCGACACGGCCGCCACUUCCGGUGGCUGGUGUCAUGGUGCGCGUGAGUGAUGUUUAUGUGGGAGGACCGGGUGUUGAGUCU [whbob_Ex_Tryp_B_w42] | 654
